# The supplement of paper PMC7877785
# ± gives the uncertainty stated by the source.
# Assay: self-splicing fitness, log relative to wild type (ln ratio); higher = more splicing; Tetrahymena group I intron in knt gene, E. coli kanamycin selection, DiMSum; sequences stand for … in CUCUCU…GGAGGGAAAAGUUAUCAGGCAUGCACCUGGUAGCUAGUCUUUAAACCAAUAGAUUGCAUCGGUUUAAAAGGCAAGACCGUCAAAUUGCGGGAAAGGGGUCAACAGCCGUUCAGUACCAAGUCUCAGGGGAAACUUUGAGAUGGCCUUGCAAAGGGUAUGGUAAUAAGCUGACGGACAUGGUCCUAACCACGCAGCCAAGUCCUAAGUCAACAGAUCUUCUGUUGAUAUGGAUGCAGUUCACAGACUAAAUGUCGGUCGGGGAAGAUGUAUUCUUCUCAUAAGAUAUAGUCGGACCUCUCCUUAAUGGGAGCUAGCGGAUGAAGUGAUGCAACACUGGAGCCGCUGGGAACUAAUUUGUAUGCGAAAGUAUAUUGAUUAGUUUUGGAGUACUCGUGGUCG
# Outline: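 DiMSum derived fitness as the error-weighted combination of fold changes across replicates, kanamycin versus no kanamycin, normalised to wild type. E. coli BL21(DE3) held the library, which randomised all eight P1ex-region intron nucleotides within the knt kanamycin-resistance gene on pET-22b(+). Six replicate transformations grew overnight at 37°C or 30°C on LB agar with or without 25 μg/mL kanamycin, also containing 100 μg/mL carbenicillin, 50 μM IPTG and 0.2% rhamnose, and pooled colonies were amplicon-sequenced on an Illumina HiSeq 2500.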
Sequence,self-splicing fitness (ln) (30 °C),self-splicing fitness (ln) (37 °C)
UGGCAGCAAUAUUACGGCCC,-1.18 ± 0.15,-0.287 ± 0.21
UUAAAGCAAUAUUACGGGGU,–,-2.21 ± 0.3
GAUGAGCAAUAUUACGGCUG,-1.42 ± 0.19,-1.36 ± 0.16
CACAAGCAAUAUUACGGUAA,-2.26 ± 0.096,-2.21 ± 0.12
CUCAAGCAAUAUUACGAGUG,-2.91 ± 0.11,-1.41 ± 0.086
CUCAAGCAAUAUUACGGGAG,-2.91 ± 0.17,-1.77 ± 0.18
UUGCAGCAAUAUUACGUUUC,-3.59 ± 0.27,-3.17 ± 0.34
CCCUAGCAAUAUUACGUUGU,-3.84 ± 0.16,-3.27 ± 0.16
AGAAAGCAAUAUUACGGUCA,-0.253 ± 0.078,0.187 ± 0.091
CGUGAGCAAUAUUACGCUUC,-3.91 ± 0.41,-3.07 ± 0.43
ACUUAGCAAUAUUACGACUC,-1.05 ± 0.12,-0.137 ± 0.15
GUCCAGCAAUAUUACGGAUU,-2.84 ± 0.09,-0.789 ± 0.091
AGCAAGCAAUAUUACGCAGA,-2.73 ± 0.22,-2.05 ± 0.18
AGAGAGCAAUAUUACGGUAG,-1.46 ± 0.12,-2.18 ± 0.19
AAAGAGCAAUAUUACGAUGU,-2.08 ± 0.17,-1.37 ± 0.23
AGUAAGCAAUAUUACGAGGA,-2.06 ± 0.33,-2.55 ± 0.49
GCUCAGCAAUAUUACGCAUG,-1.66 ± 0.1,-1.49 ± 0.1
GAUCAGCAAUAUUACGCUCA,-0.493 ± 0.084,-0.611 ± 0.1
CGUUAGCAAUAUUACGCGGC,-2.07 ± 0.23,-2.19 ± 0.26
CGAGAGCAAUAUUACGGUAG,-1.73 ± 0.23,-1.65 ± 0.33
CAAAAGCAAUAUUACGAGGU,-3.46 ± 0.15,-2.91 ± 0.21
CGCUAGCAAUAUUACGCGUA,-3.45 ± 0.37,-1.45 ± 0.15
GCCAAGCAAUAUUACGUGUU,-0.889 ± 0.049,-0.309 ± 0.06
GAUUAGCAAUAUUACGUUUC,-3.69 ± 0.28,-1.89 ± 0.18
CCGAAGCAAUAUUACGGGAC,-4.02 ± 0.26,-3.3 ± 0.26

Sequence,self-splicing fitness (ln) (30 °C),self-splicing fitness (ln) (37 °C)
AAAAAGCAAUAUUACGAGUA,-1.68 ± 0.12,-0.884 ± 0.11
GGACAGCAAUAUUACGGCCA,-0.721 ± 0.077,-0.225 ± 0.1
GAGCAGCAAUAUUACGCGGG,-2.52 ± 0.21,-1.96 ± 0.23
UUUCAGCAAUAUUACGGCGC,-1.11 ± 0.11,-1.58 ± 0.16
GUUCAGCAAUAUUACGGGCG,-1.57 ± 0.15,-0.592 ± 0.15
AAUGAGCAAUAUUACGAGGC,–,-3.11 ± 0.4
GCAUAGCAAUAUUACGCCGA,–,-2.37 ± 0.25
GCCCAGCAAUAUUACGCAUG,-3.92 ± 0.33,-2.24 ± 0.38
GAUAAGCAAUAUUACGAUGC,-0.7 ± 0.11,-0.45 ± 0.11
AUGCAGCAAUAUUACGGACA,-1.13 ± 0.15,-0.421 ± 0.13
UCAAAGCAAUAUUACGAUAA,-1.43 ± 0.11,-0.335 ± 0.13
UUGGAGCAAUAUUACGGGCC,–,-1.33 ± 0.42
AGCCAGCAAUAUUACGUGAU,-2.31 ± 0.075,-1.35 ± 0.098
GCAUAGCAAUAUUACGUCCU,-1.16 ± 0.12,-0.534 ± 0.15
CAGCAGCAAUAUUACGAAUC,-2.38 ± 0.27,-2.33 ± 0.4
AAUCAGCAAUAUUACGAUGU,0.218 ± 0.053,0.543 ± 0.08
UGUUAGCAAUAUUACGCACA,-1.21 ± 0.12,-0.549 ± 0.11
CGGCAGCAAUAUUACGCAAA,-2.77 ± 0.2,-2.43 ± 0.22
UUUAAGCAAUAUUACGACAU,-1.45 ± 0.015,-0.621 ± 0.034
GACUAGCAAUAUUACGCCCA,-0.026 ± 0.17,0.443 ± 0.24
UAAUAGCAAUAUUACGUGUC,-3.02 ± 0.23,-2.44 ± 0.3
CCCGAGCAAUAUUACGGACG,-3.62 ± 0.29,-0.706 ± 0.18
GCCAAGCAAUAUUACGCGCG,-1.87 ± 0.13,-0.932 ± 0.14
GCGUAGCAAUAUUACGAGCG,-0.887 ± 0.15,-1.62 ± 0.17
CCGCAGCAAUAUUACGUGCC,-3.67 ± 0.24,-3.75 ± 0.3

Sequence,self-splicing fitness (ln) (30 °C),self-splicing fitness (ln) (37 °C)
CUGAAGCAAUAUUACGGGCC,-3.65 ± 0.32,–
ACUAAGCAAUAUUACGUGAU,-1.65 ± 0.062,-1.21 ± 0.077
AAAAAGCAAUAUUACGUGGG,-3.51 ± 0.13,-2.03 ± 0.13
CCGGAGCAAUAUUACGGAUU,–,-1.82 ± 0.2
GUAUAGCAAUAUUACGGUAG,-1.43 ± 0.095,-1.23 ± 0.15
CUACAGCAAUAUUACGCUUA,-3.44 ± 0.19,-2.65 ± 0.19
CCUCAGCAAUAUUACGGCCG,-2.11 ± 0.1,-0.442 ± 0.11
CAGCAGCAAUAUUACGUGUG,-2.51 ± 0.077,-1.32 ± 0.088
CACCAGCAAUAUUACGUUCG,-0.281 ± 0.049,-0.196 ± 0.062
AGACAGCAAUAUUACGAUAG,-3.16 ± 0.2,-1.56 ± 0.26
GGACAGCAAUAUUACGCAGG,-1.45 ± 0.1,-0.578 ± 0.11
GGUGAGCAAUAUUACGUCAA,-3.58 ± 0.46,-2.78 ± 0.31
CGAGAGCAAUAUUACGGCAC,-3.72 ± 0.3,-2.36 ± 0.23
CCCGAGCAAUAUUACGGGCC,-3.99 ± 0.27,-2.26 ± 0.26
UUACAGCAAUAUUACGGCUC,-1.76 ± 0.16,-0.974 ± 0.16
AGGCAGCAAUAUUACGCAAG,-1.22 ± 0.072,-0.387 ± 0.098
AGCCAGCAAUAUUACGCAUU,-1.65 ± 0.062,-1.25 ± 0.075
CAGAAGCAAUAUUACGUUGA,-2.84 ± 0.2,-1.53 ± 0.15
UCGCAGCAAUAUUACGGUUG,-2.75 ± 0.1,-1.47 ± 0.12
AGAAAGCAAUAUUACGGCCC,0.946 ± 0.29,-0.169 ± 0.27
UGUUAGCAAUAUUACGUCCG,-0.342 ± 0.15,0.113 ± 0.22
CUUAAGCAAUAUUACGCUAC,-4.22 ± 0.42,-2.34 ± 0.36
UGCGAGCAAUAUUACGGCUA,0.388 ± 0.12,0.499 ± 0.15
CCGGAGCAAUAUUACGUGGU,-3.01 ± 0.2,0.658 ± 0.18
GCUUAGCAAUAUUACGGGCG,-1.44 ± 0.082,-0.621 ± 0.098

Sequence,self-splicing fitness (ln) (30 °C),self-splicing fitness (ln) (37 °C)
CGCCAGCAAUAUUACGGUGC,-3.5 ± 0.17,-3.07 ± 0.3
GUCUAGCAAUAUUACGUACU,-0.946 ± 0.11,-0.0535 ± 0.1
CGAUAGCAAUAUUACGGAAC,-2.5 ± 0.2,-2.68 ± 0.25
CGCAAGCAAUAUUACGUAUA,-3.79 ± 0.44,-3.01 ± 0.2
AUGAAGCAAUAUUACGGGUA,-1.01 ± 0.097,-0.761 ± 0.13
GAGCAGCAAUAUUACGACCU,-1.22 ± 0.17,0.00279 ± 0.23
ACCAAGCAAUAUUACGCCAG,-2.75 ± 0.16,-1.42 ± 0.18
GCAGAGCAAUAUUACGUUGC,–,-1.06 ± 0.43
GAAAAGCAAUAUUACGACCU,-0.497 ± 0.13,-1.42 ± 0.12
GCGGAGCAAUAUUACGAGCA,–,-0.82 ± 0.4
GCAGAGCAAUAUUACGGGUG,-2.91 ± 0.22,-1.82 ± 0.16
GUUGAGCAAUAUUACGACAA,-2.38 ± 0.33,-2.54 ± 0.44
UCUCAGCAAUAUUACGCGUA,-1.04 ± 0.1,-0.966 ± 0.1
CGUCAGCAAUAUUACGUAAG,0.214 ± 0.054,0.2 ± 0.07
CGUAAGCAAUAUUACGAAUG,-0.363 ± 0.081,-0.692 ± 0.088
AGUCAGCAAUAUUACGGUGU,-1.32 ± 0.075,-0.39 ± 0.1
AGCGAGCAAUAUUACGCAAC,-3.6 ± 0.27,-2.63 ± 0.21
CUCAAGCAAUAUUACGGUUG,-3.38 ± 0.19,-2.56 ± 0.22
GAAUAGCAAUAUUACGGCGC,0.0238 ± 0.14,0.023 ± 0.16
AGGCAGCAAUAUUACGUAGC,-2.64 ± 0.23,-1.29 ± 0.17
GUUCAGCAAUAUUACGGAGC,-2.39 ± 0.32,-1.53 ± 0.42
UCAAAGCAAUAUUACGGUGG,-1.79 ± 0.058,-1.05 ± 0.083
